Residue numbers refer to the chain shown, from its start. Names and notes keep the numbering of the source.
B1: Antibody 2: Murine germline sequence Antibody 1 was derived from; VH SEQ ID NO: 25, VL SEQ ID NO: 26 (antibody, V domains shown)
VH: QVQLQQSGAELARPGASVKLSCKASGYTFTSYGISWVKQRTGQGLEWIGEIYPRSGNTYYNEKFKGKATLTADKSSSTAYMELRSLTSEDSAVYFCARDYGSSRYAMDYWGQGTSVTVSS
VL: SIVMTQTPKFLPVSAGDRVTMTCKASQSVGNNVAWYQQKPGQSPKLLIYYASNRYTGVPDRFTGSGSGTDFTFTISSVQVEDLAVYFCQQHYSSPLTFGAGTKLELK
B2: Antibody 6: Antibody 5 with LCDR3 reversion N93S; VH SEQ ID NO: 27, VL SEQ ID NO: 32 (antibody, V domains shown)
VH: B1 VH with Y32S, Y52L, N57Y, Y59N, Y100F
VL: B1 VL with G30R, N31Y, Q90H
B3: Antibody 1: Hybridoma-derived antibody against LPAR1; VH SEQ ID NO: 23, VL SEQ ID NO: 24 (antibody, V domains shown)
VH: B1 VH with Y32S, Y52L, N57Y, Y59N, T69S, Y100F, G111S
VL: B1 VL with F10L, G30R, N31Y, I75V, S76R, S93N, A100S, K107R
B4: Antibody 4: Hybridoma related to Antibody 1 with LCDR3 mutation Q90H; VH SEQ ID NO: 29, VL SEQ ID NO: 30 (antibody, V domains shown)
VH: B1 VH with Y32S, N57Y, Y59N, T69S, S77R, G101D, S102N, M107L
VL: B1 VL with N31Y, P40T, Q90H
B5: Antibody 5: Antibody 3 with VL mutation Q90H; VH SEQ ID NO: 27, VL SEQ ID NO: 31 (antibody, V domains shown)
VH: B1 VH with Y32S, Y52L, N57Y, Y59N, Y100F
VL: B1 VL with G30R, N31Y, Q90H, S93N
B6: 63D8: Further hybridoma antibody specific to LPAR1; VH SEQ ID NO: 113, VL SEQ ID NO: 114 (antibody, V domains shown)
VH: EVKLLESGGGLVQPGGSLKLSCTASGFDFSRYWMSWVRQAPGKGLEWIGEINPSRSAINYSPSLKDKFIISRDNAKNTLYLQMSKVRSEDTALYYCARQGQRLRYGMDYWGQGTSVTVSS
VL: DIVMTQSPNFMSTSVGDRVSVTCRASQDVRTAVAWYQQKPGRSPKLLIYWTSTRHTGVPDRFTGSGSGTDYTLTISSVQAADLALYYCQQHYGTPLTFGAGTNLELK
B7: Antibody 7: Humanised variant of Antibody 1; VH SEQ ID NO: 33, VL SEQ ID NO: 34 (antibody, V domains shown)
VH: QVQLVQSGSELKKPGASVKVSCKASGYTFTSSGISWVRQAPGQGLEWMGEILPRSGYTNYNEGFTGRFVFSADKSVSTAYLQISSLKAEDTAVYYCARDFGSSRYAMDYWGQGTTVTVSS
VL: SIQMTQSPSSLSASVGDRVTITCQASQSVRYNVAWYQQKPGKAPKLLIYYASNRYTGVPSRFSGSGSGTDFTFTISSLQPEDIATYFCQQHYNSPLTFGGGTKLEIK
B8: Antibody 13: LCDR2 mutation T56D; VH SEQ ID NO: 37, VL SEQ ID NO: 38 (antibody, V domains shown)
VH: B7 VH with E62Q, F100K, S102P, A106T
VL: B7 VL with T56D, Q90H, N93S
B9: Antibody 9: Antibody 8 with HCDR2 mutation E61Q; VH SEQ ID NO: 35, VL SEQ ID NO: 39 (antibody, V domains shown)
VH: B7 VH with E62Q
VL: B7 VL with Q90H, N93S

Tests used:
LPAR1 [1] = biological target: T1, LPAR1 (Homo sapiens, UniProt Q92633); assay: LPAR1 binding affinity during discovery and affinity maturation, method not stated; set-up: expressed in transfected cells; settings: stated in words
CHO-LPAR1 cells = biological target: T2, CHO-LPAR1 cells (Homo sapiens, UniProt Q92633); assay: Competition CIFAT; assay type: binding; settings: data not shown
T2 construct: expressed in transfected cells
Experimental: CHO-LPAR1 (GenScript) cells were seeded in black 96-well plates at 50,000 cells/200 μL full growth medium at and incubated for 24 hours at 37° C. The following day, the medium was removed from the wells and the cells incubated with 100 μg/mL primary antibody for 20 minutes at 37° C. After pre-incubation with the antibody, 10 μg/mL biotinylated competing antibody was added before incubation for 20 minutes at 37° C. After washing and cell fixation with 4% PFA, the binding of the antibodies was detected using an Alexa Fluor 488 streptavidin detection antibody (Molecular Probes), incubated for 45 minutes at 4° C. Fluorescence at 488 nm was measured using a BMG LABTECH ClarioStar plate reader and microscopy images were taken at 10× magnification.

LPAR1 [2] = biological target: T1, LPAR1; assay: Transient-transfection CIFAT, live cells; assay type: binding; set-up: HA; expressed in transfected cells; host or cells: CHO-K1 (transient, PEI); settings: 5 μg/mL or 20 μg/mL
Experimental: CHO-K1 cells are seeded in multi well plates at 20,000 cells per 200 μL full growth medium and incubated for 24 hours at 37° C. In a sterile tube, 0.0309 uL/well PEI is diluted into 10 uL/well transfection medium (DMEM supplemented with 2 mM L-glutamine and Penicillin-Streptomycin). The diluted PEI is added to 100 ng/well DNA, before mixing immediately and incubating the mixture for 10 minutes at room temperature. 200 μL/well full growth medium is added to the PEI-DNA mixture, then medium in wells is taken off and 200 ul full growth medium/PEI/DNA mixture is added in the wells of the adherent cell plate. The plate is incubated for 24 hours at 37° C. The medium is discarded and replaced with 200 μL full growth medium. The plate is incubated for 24 hours at 37° C. Medium is removed from the wells and the cells incubated with primary antibody at varying concentrations for 75 minutes at 37° C. After washing and cell fixation with 4% PFA, the binding of the antibodies is detected using a goat anti-human detection antibody, incubated for 1 hour at room temperature. Fluorescence at 488 nm is measured.
CHO-K1 cells were seeded in clear 96-well plates at 20,000 cells per 200 μL full growth medium and incubated for 24 hours at 37° C. The following day, in a sterile tube, 0.0309 uL/well PEI (Generon, MW 160,000) was diluted into 10 uL/well transfection medium (DMEM supplemented with 2 mM L-glutamine and Penicillin-Streptomycin). The diluted PEI was added to 100 ng/well DNA encoding the target protein (human LPAR1 (SEQ ID NO: 62) unless otherwise stated), before vortexing immediately and incubating the mixture for 10 minutes at room temperature. 200 μL/well full growth medium was added to the PEI-DNA mixture, then medium in wells was taken off and 200 ul full growth medium/PEI/DNA mixture was added in the wells of the adherent cell plate. The plate was incubated for 24 hours at 37° C. The next day, the medium was discarded and replaced with 200 μL full growth medium. The plate was incubated for 24 hours at 37° C. The following day, medium was removed from the wells and the cells incubated with primary antibody at varying concentrations for 75 minutes at 37° C. After washing and cell fixation with 4% PFA, the binding of the antibodies was detected using a goat anti-human Alexa Fluor 488 detection antibody (Invitrogen), incubated for 1 hour at room temperature. Fluorescence at 488 nm was measured using a BMG LABTECH ClarioStar plate reader and microscopy images were taken at 10× magnification.
(§1) Anti-LPAR1 antibodies of the invention were tested alongside commercially available anti-LPAR1 antibodies in the transient-transfection CIFAT assay for live cells (method 1.11) and in the transient-transfection CIFAT assay for fixed cells (method 1.11).

Irrelevant GPCR = assay: Transient-transfection CIFAT, irrelevant GPCR control (fixed and live cells); assay type: binding; settings: cells expressing irrelevant GPCR
Experimental: as §1
The results are shown in FIGS. 11 and 12, wherein the scale bar represents 100 μm.

LPAR1 [3] = biological target: T1, LPAR1; assay: Transient-transfection CIFAT, fixed/permeabilised cells; assay type: binding; set-up: HA; expressed in transfected cells; host or cells: CHO-K1 (transient, PEI); settings: 5 μg/mL
LPAR1 [4] = biological target: T1, LPAR1; assay: Function of humanised and affinity matured variants, method not stated; set-up: expressed in transfected cells; settings: stated in words
[5] = system: renal fibrosis after UUO surgery; assay: Unilateral ureteral obstruction (UUO) efficacy model of renal fibrosis; assay type: in vivo, Hartley guinea pigs; settings: Study 1; BMS-986020 30 mg/kg oral twice daily; antibody 20 mg/kg i.p.; Day 10
Experimental: Unilateral ureteral obstruction (UUO) is a well-characterized disease model for renal fibrosis. The UUO model encompasses key pathophysiological features of chronic kidney disease; tubular necrosis and inflammatory cell infiltration within a relatively short period.
Two unilateral ureteral obstruction (UUO) model efficacy studies were carried out in six-week old female Hartley guinea pigs. On Day 0, UUO surgery was performed. BMS-986020 was administered orally at a dose level of 30 mg/kg in a volume of 5 mL/kg twice daily at from Day −1 to 9. Isotype control and anti-LPAR1 antibody was intraperitoneally administered at a dose level of 6 mg/kg (low) or 20 mg/kg (high) in a volume of 10 mL/kg at Day −1, Day 0, Day 3 and Day 6. The viability, clinical signs, behaviour and individual body weight was monitored daily.
The animals were sacrificed at Day 10. The ligated left kidney and right kidney weight were measured at sacrifice.
Hydroxyproline is an amino acid, making up around 14% of collagen and acts as an important indicator of the severity of fibrosis. To quantify kidney hydroxyproline content, frozen posterior right section of left kidney samples were processed by an alkaline-acid hydrolysis method. AC buffer (2.2M acetic acid/0.48M citric acid) was added to the samples, followed by centrifugation to collect the supernatant. A standard curve of hydroxyproline was constructed with serial dilutions of trans-4-hydroxy-L-proline (Sigma-Aldrich, USA) starting at 16 μg/mL. The prepared samples and standards were mixed with chloramine T solution (Nacalai Tesque Inc., Japan) and incubated for 25 minutes at room temperature. The samples were then mixed with Ehrlich's solution and heated at 65° C. for 20 minutes to develop the colour. After samples were cooled on ice and centrifuged to remove precipitates, the optical density of each supernatant was measured at 560 nm. The concentrations of hydroxyproline were calculated from the hydroxyproline standard curve. Protein concentrations of kidney samples were determined using a BCA protein assay kit (Thermo Fisher Scientific, USA) and used to normalize the calculated hydroxyproline values. Kidney hydroxyproline contents were expressed as μg per mg protein.
The left kidney was fixed in Bouin's solution and embedded in paraffin. For PAS staining, sections were cut from paraffin blocks and stained with Schiff's reagent (FUJIFILM Wako pure chemical corporation, Japan) according to the manufacturer's instructions. To visualize collagen deposition, kidney sections were stained using picro-Sirius red solution (FUJIFILM Wako pure chemical corporation). For quantification of interstitial and medulla fibrosis area, bright field images in the corticomedullary region were captured using a digital camera (DFC295) at 200-fold magnification, and the positive areas in 5 fields/section were measured using ImageJ software (National Institute of Health, USA).

T1 sequence (Q92633 whole entry): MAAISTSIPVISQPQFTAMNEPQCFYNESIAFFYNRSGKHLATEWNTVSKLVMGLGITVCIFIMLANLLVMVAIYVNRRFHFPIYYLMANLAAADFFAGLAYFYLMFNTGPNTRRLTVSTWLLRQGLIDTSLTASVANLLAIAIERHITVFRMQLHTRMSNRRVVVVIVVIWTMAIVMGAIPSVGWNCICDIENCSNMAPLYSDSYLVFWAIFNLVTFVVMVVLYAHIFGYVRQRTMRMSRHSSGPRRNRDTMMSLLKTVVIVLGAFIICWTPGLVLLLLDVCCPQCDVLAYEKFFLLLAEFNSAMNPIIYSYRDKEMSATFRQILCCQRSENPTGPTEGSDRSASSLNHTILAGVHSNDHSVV
T2 sequence (Q92633 whole entry): as above

Molecule | binding affinity for LPAR1 (LPAR1 [1]) | LPAR1 live cell staining (LPAR1 [2]) | Irrelevant GPCR cell staining (Irrelevant GPCR) | LPAR1 fixed cell staining (LPAR1 [3]) | also measured
B1 | extremely low binding affinity |  |  |  | 
B2 | large affinity gain |  |  |  | 
B3 |  |  |  |  | competition for the same epitope (CHO-LPAR1 cells): compete for the same epitope
B4 |  | LPAR1-Significant fixed and live cell staining | Irrelevant GPCR-No significant cell staining | LPAR1-Significant fixed and live cell staining | 
B5 | improved affinity |  |  |  | 
B6 |  | LPAR1-Significant fixed and live cell staining | Irrelevant GPCR-No significant cell staining | LPAR1-Significant fixed and live cell staining | competition for the same epitope (CHO-LPAR1 cells): compete for the same epitope
B7 |  |  |  |  | function (LPAR1 [4]): best in terms of expression, stability and function
B8 | minimal effect on affinity | LPAR1-Significant fixed and live cell staining | Irrelevant GPCR-No significant cell staining | LPAR1-Significant fixed and live cell staining | kidney hydroxyproline [5]: No observable difference
B9 |  |  |  |  | function (LPAR1 [4]): significantly enhanced the function

Reference: patent publication US12599645B2, “Antibodies which bind to lysophosphatidic acid receptor 1 (LPAR1)” (DJS ANTIBODIES LTD, priority 2021, dated 2026)
